Laboratory results published in patent US8729030B2 (Affymax, Inc., priority 2003, dated 2014).
pEC50: −log10 of the molar value. Bridges are numbered along the chain shown (N, C = ends). Where no end group is shown, it is not given here. [ ]: non-standard residue; d: D form. 1Nal = N[C@@H](Cc1cccc2ccccc12)C(=O)O; Sar = CNCC(=O)O

Molecular target: T1, human EPO-R (Homo sapiens, UniProt P19235)
T1 construct: expressed in transfected cells; host or cells: murine pre-B-cell line Baf3 (BaF3/Gal4/Elk/EPOR)
T1 sequence (P19235 25-508): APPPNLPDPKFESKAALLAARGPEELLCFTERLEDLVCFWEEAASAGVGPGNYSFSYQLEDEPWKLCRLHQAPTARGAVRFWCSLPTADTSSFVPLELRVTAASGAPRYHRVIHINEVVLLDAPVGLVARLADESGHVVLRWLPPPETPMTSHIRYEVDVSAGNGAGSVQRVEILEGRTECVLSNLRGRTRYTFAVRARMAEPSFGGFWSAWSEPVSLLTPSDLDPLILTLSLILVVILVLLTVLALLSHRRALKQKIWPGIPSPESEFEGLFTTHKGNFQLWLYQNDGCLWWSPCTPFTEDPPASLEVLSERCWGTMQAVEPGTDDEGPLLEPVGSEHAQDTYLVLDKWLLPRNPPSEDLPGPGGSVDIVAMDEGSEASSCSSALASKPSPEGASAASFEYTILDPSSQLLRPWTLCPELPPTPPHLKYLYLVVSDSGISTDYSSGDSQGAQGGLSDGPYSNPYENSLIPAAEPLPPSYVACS
Experiment: Proliferation assay (BaF3/Gal4/Elk/EPOR cells, MTT)
Type: cell-based
Conditions: Table 6, 48 h
Experimental: This assay is based upon a murine pre-B-cell line, Baf3, transfected to express human EPO-R. Proliferation of the resulting cell line, BaF3/Gal4/Elk/EPOR, is dependent on EPO-R activation. The degree of cell proliferation is quantitated using MTT, where the signal in the MTT assay is proportional to the number of viable cells.
The BaF3/Gal4/Elk/EPOR cells are cultured in spinner flasks in DMEM/F12 medium (Gibco) supplemented with 10% FBS (Hyclone) and 2% WEHI-3 supernatant (ATCC #TIB-68). Cultured cells are starved overnight, in a spinner flask at a cell density of 1×10^6 cells/ml, in DMEM/F12 medium supplemented with 10% FBS and 0.1% WEHI-3 supernatant. […] Absorbance of each well at a wavelength of 595 nm is then measured by spectrophotometry. Plots of the absorbance readings versus test peptide concentration are constructed and the EC50 calculated using Graph Pad software. The concentration of test peptide that results in a half-maximal absorbance is recorded as the EC50[See Table 2: Proliferation EC50].
The BaF3/Gal4/Elk/EPOR cells are cultured in spinner flasks in DMEM/F12 medium (Gibco) supplemented with 10% FBS (Hyclone) and 2% WEHI-3 supernatant (ATCC #TIB-68). […] Absorbance of each well at a wavelength of 595 nm is then measured by spectrophotometry. Plots of the absorbance readings versus test peptide concentration are constructed and the EC50 calculated using Graph Pad software. […]

Substance: peptide dimer of monomers (AcG)GLYACHMGPIT(1-nal)VCQPLR(MeG)K (SEQ ID NO: 2) (Ac-GGLYACHMGPIT[1Nal]VCQPLR[Sar]K; disulfide 6-15 (inferred); not fully specified (residue 1); printed as (AcG)GLYACHMGPIT(1-nal)VCQPLR(MeG)K; also: homodimer, dimer linkage not given here) [Peptide I]
- pEC50: 9.78
